Assay results published in publication PMC8378520 (Nature structural & molecular biology, 2021).

T1: FANCI (human, UniProt Q9NVI1 1-1328)
T1 sequence: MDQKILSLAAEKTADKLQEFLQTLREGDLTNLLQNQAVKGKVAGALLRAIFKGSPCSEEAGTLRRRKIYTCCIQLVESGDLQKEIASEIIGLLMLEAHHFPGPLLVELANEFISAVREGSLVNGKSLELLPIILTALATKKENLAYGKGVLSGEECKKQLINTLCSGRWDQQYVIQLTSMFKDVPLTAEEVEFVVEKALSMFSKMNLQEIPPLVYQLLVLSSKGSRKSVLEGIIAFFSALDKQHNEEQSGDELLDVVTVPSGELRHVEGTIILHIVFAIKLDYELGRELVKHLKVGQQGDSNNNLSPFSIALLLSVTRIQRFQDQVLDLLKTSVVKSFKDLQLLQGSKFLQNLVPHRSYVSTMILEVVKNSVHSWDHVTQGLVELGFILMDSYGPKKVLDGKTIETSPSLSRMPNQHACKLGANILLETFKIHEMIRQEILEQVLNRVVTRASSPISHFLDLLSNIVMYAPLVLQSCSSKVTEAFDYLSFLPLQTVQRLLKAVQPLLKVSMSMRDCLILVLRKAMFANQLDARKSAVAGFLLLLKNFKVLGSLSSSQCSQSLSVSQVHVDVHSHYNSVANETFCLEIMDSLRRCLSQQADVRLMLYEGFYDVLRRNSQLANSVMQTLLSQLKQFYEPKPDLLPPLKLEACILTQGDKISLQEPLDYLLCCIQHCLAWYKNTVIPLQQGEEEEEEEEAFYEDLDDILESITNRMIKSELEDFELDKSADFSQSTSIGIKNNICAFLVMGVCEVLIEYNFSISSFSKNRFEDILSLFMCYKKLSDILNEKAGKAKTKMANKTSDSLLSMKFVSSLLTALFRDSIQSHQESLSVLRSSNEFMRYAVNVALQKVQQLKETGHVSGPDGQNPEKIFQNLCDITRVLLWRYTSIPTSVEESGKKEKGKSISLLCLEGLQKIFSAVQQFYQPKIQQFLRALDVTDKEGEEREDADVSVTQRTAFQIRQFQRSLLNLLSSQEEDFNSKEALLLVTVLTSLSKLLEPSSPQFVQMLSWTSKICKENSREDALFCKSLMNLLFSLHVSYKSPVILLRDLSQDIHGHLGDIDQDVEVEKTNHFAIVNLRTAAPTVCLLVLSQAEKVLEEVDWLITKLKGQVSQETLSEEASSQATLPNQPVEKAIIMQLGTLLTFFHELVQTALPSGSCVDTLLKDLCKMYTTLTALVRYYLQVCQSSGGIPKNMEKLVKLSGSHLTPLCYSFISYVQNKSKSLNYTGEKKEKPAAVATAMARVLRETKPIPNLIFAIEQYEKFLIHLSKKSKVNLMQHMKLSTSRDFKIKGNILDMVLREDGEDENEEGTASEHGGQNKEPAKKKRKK

B1: FANCL (enzyme, human, UniProt Q9NW38-1 1-375, looked up)
chain: MAVTEASLLRQCPLLLPQNRSKTVYEGFISAQGRDFHLRIVLPEDLQLKNARLLCSWQLRTILSGYHRIVQQRMQHSPDLMSFMMELKMLLEVALKNRQELYALPPPPQFYSSLIEEIGTLGWDKLVYADTCFSTIKLKAEDASGREHLITLKLKAKYPAESPDYFVDFPVPFCASWTPQSSLISIYSQFLAAIESLKAFWDVMDEIDEKTWVLEPEKPPRSATARRIALGNNVSINIEVDPRHPTMLPECFFLGADHVVKPLGIKLSRNIHLWDPENSVLQNLKDVLEIDFPARAILEKSDFTMDCGICYAYQLDGTIPDQVCDNSQCGQPFHQICLYEWLRGLLTSRQSFNIIFGECPYCSKPITLKMSGRKH

Assays:
Test in all cases: cryo-EM structure
[1] = molecular target: FA Core complex (human | human (endogenous in HEK-293F)) (UniProt O15360)
[2] = molecular target: T1, FANCI
[3] = molecular target: B1
[4] = molecular target: the molecule itself

Molecule | binding result [2] | stoichiometry N [4] | also measured
FANCI-FANCD2 (ID) complex (from UniProt Q9NVI1 1-1328; Q9BXW9 1-1451) |  |  | percent of Core particles with bound ID [1]: 63%
UBE2T (enzyme, human) MQRASRLKRELHMLATEPPPGITCWQDKDQMDDLRAQILGGANTPYEKGVFKLEVIIPERYPFEPPQIRFLTPIYHPNIDSAGRICLDVLKLPPKGAWRPSLNIATVLTSIQLLMSEPNPDDPLMADISSEFKYNKPAFLKNARQWTEKHARQKQKADEEEMLDNLPEAGDSRVHNSTQKRKASQLVGIEKKFHPDV | binds |  | binding result [3]: binds
FANCA (natural protein, human, UniProt O15360-1 1-1455, looked up) MSDSWVPNSASGQDPGGRRRAWAELLAGRVKREKYNPERAQKLKESAVRLLRSHQDLNALLLEVEGPLCKKLSLSKVIDCDSSEAYANHSSSFIGSALQDQASRLGVPVGILSAGMVASSVGQICTAPAETSHPVLLTVEQRKKLSSLLEFAQYLLAHSMFSRLSFCQELWKIQSSLLLEAVWHLHVQGIVSLQELLESHPDMHAVGSWLFRNLCCLCEQMEASCQHADVARAMLSDFVQMFVLRGFQKNSDLRRTVEPEKMPQVTVDVLQRMLIFALDALAAGVQEESSTHKIVRCWFGVFSGHTLGSVISTDPLKRFFSHTLTQILTHSPVLKASDAVQMQREWSFARTHPLLTSLYRRLFVMLSAEELVGHLQEVLETQEVHWQRVLSFVSALVVCFPEAQQLLEDWVARLMAQAFESCQLDSMVTAFLVVRQAALEGPSAFLSYADWFKASFGSTRGYHGCSKKALVFLFTFLSELVPFESPRYLQVHILHPPLVPGKYRSLLTDYISLAKTRLADLKVSIENMGLYEDLSSAGDITEPHSQALQDVEKAIMVFEHTGNIPVTVMEASIFRRPYYVSHFLPALLTPRVLPKVPDSRVAFIESLKRADKIPPSLYSTYCQACSAAEEKPEDAALGVRAEPNSAEEPLGQLTAALGELRASMTDPSQRDVISAQVAVISERLRAVLGHNEDDSSVEISKIQLSINTPRLEPREHMAVDLLLTSFCQNLMAASSVAPPERQGPWAALFVRTMCGRVLPAVLTRLCQLLRHQGPSLSAPHVLGLAALAVHLGESRSALPEVDVGPPAPGAGLPVPALFDSLLTCRTRDSLFFCLKFCTAAISYSLCKFSSQSRDTLCSCLSPGLIKKFQFLMFRLFSEARQPLSEEDVASLSWRPLHLPSADWQRAALSLWTHRTFREVLKEEDVHLTYQDWLHLELEIQPEADALSDTERQDFHQWAIHEHFLPESSASGGCDGDLQAACTILVNALMDFHQSSRSYDHSENSDLVFGGRTGNEDIISRLQEMVADLELQQDLIVPLGHTPSQEHFLFEIFRRRLQALTSGWSVAASLQRQRELLMYKRILLRLPSSVLCGSSFQAEQPITARCEQFFHLVNSEMRNFCSHGGALTQDITAHFFRGLLNACLRSRDPSLMVDFILAKCQTKCPLILTSALVWWPSLEPVLLCRWRRHCQSPLPRELQKLQEGRQFASDFLSPEAASPAPNPDWLSAAALHFAIQQVREENIRKQLKKLDCEREELLVFLFFFSLMGLLSSHLTSNSTTDLPKAFHVCAAILECLEKRKISWLALFQLTESDLRLGRLLLRVAPDQHTRLLPFAFYSLLSYFHEDAAIREEAFLHVAVDMYLKLVQLFVAGDTSTVSPPAGRSLELKGQGNPVELITKARLFLLQLIPRCPKKSFSHVAELLADRGDCDPEVSAALQSRQQAAPDADLSQEPHLF |  | 2 | 
FANCB-FAAP100 heterodimer (complex, human) chain 1: MTSKQAMSSNEQERLLCYNGEVLVFQLSKGNFADKEPTKTPILHVRRMVFDRGTKVFVQKSTGFFTIKEENSHLKIMCCNCVSDFRTGINLPYIVIEKNKKNNVFEYFLLILHSTNKFEMRLSFKLGYEMKDGLRVLNGPLILWRHVKAFFFISSQTGKVVSVSGNFSSIQWAGEIENLGMVLLGLKECCLSEEECTQEPSKSDYAIWNTKFCVYSLESQEVLSDIYIIPPAYSSVVTYVHICATEIIKNQLRISLIALTRKNQLISFQNGTPKNVCQLPFGDPCAVQLMDSGGGNLFFVVSFISNNACAVWKESFQVAAKWEKLSLVLIDDFIGSGTEQVLLLFKDSLNSDCLTSFKITDLGKINYSSEPSDCNEDDLFEDKQENRYLVVPPLETGLKVCFSSFRELRQHLLLKEKIISKSYKALINLVQGKDDNTSSAEEKECLVPLCGEEENSVHILDEKLSDNFQDSEQLVEKIWYRVIDDSLVVGVKTTSSLKLSLNDVTLSLLMDQAHDSRFRLLKCQNRVIKLSTNPFPAPYLMPCEIGLEAKRVTLTPDSKKEESFVCEHPSKKECVQIITAVTSLSPLLTFSKFCCTVLLQIMERESGNCPKDRYVVCGRVFLSLEDLSTGKYLLTFPKKKPIEHMEDLFALLAAFHKSCFQITSPGYALNSMKVWLLEHMKCEIIKEFPEVYFCERPGSFYGTLFTWKQRTPFEGILIIYSRNQTVMFQCLHNLIRILPINCFLKNLKSGSENFLIDNMAFTLEKELVTLSSLSSAIAKHESNFMQRCEVSKGKSSVVAAALSDRRENIHPYRKELQREKKKMLQTNLKVSGALYREITLKVAEVQLKSDFAAQKLSNL chain 2: MAGAAPRVRYLAGFCCPLGGLAAGKPRVLCHEAEVFLSTGSELVYVYDQEGGLLTAAFRFPDQVWHLELLAPRRLLYALCARRGLYCLSLDHPGRSRSTSQDDRDSEDGDQPSPVIPVDPDACILPDAALCAFTLLDSVLVTLVQGPARWKMQLFEQPCPGEDPRPGGQIGEVELSSYTPPAGVPGKPAAPHFLPVLCSVSPSGSRVPHDLLGGSGGFTLEDALFGLLFGADATLLQSPVVLCGLPDGQLCCVILKALVTSRSAPGDPNALVKILHHLEEPVIFIGALKTEPQAAEAAENFLPDEDVHCDCLVAFGHHGRMLAIKASWDESGKLVPELREYCLPGPVLCAACGGGGRVYHSTPSDLCVVDLSRGSTPLGPEQPEEGPGGLPPMLCPASLNICSVVSLSASPRTHEGGTKLLALSAKGRLMTCSLDLDSEMPGPARMTTESAGQKIKELLSGIGNISERVSFLKKAVDQRNKALTSLNEAMNVSCALLSSGTGPRPISCTTSTTWSRLQTQDVLMATCVLENSSSFSLDQGWTLCIQVLTSSCALDLDSACSAITYTIPVDQLGPGARREVTLPLGPGENGGLDLPVTVSCTLFYSLREVVGGALAPSDSEDPFLDECPSDVLPEQEGVCLPLSRHTVDMLQCLRFPGLAPPHTRAPSPLGPTRDPVATFLETCREPGSQPAGPASLRAEYLPPSVASIKVSAELLRAALKDGHSGVPLCCATLQWLLAENAAVDVVRARALSSIQGVAPDGANVHLIVREVAMTDLCPAGPIQAVEIQVESSSLADICRAHHAVVGRMQTMVTEQATQGSSAPDLRVQYLRQIHANHETLLREVQTLRDRLCTEDEASSCATAQRLLQVYRQLRHPSLILL |  | 2 | 
B1 | binds |  | 
